Experimental data: the supplement of paper PMC11246515
± gives the standard deviation of the averaged measurements.

Experiment: total protein half-life in vivo (active degradation + dilution); higher = more stable protein
[1] = wild type E. coli NCM3722, growth: C-lim chemostat, doubling time 6 h
[2] = wild type E. coli NCM3722, growth: C-lim chemostat, doubling time 12 h
[3] = E. coli NCM3722 delta-clpP delta-lon delta-hslV, growth: N-lim chemostat, doubling time 6 h
[4] = E. coli NCM3722 delta-clpP, growth: N-lim chemostat, doubling time 6 h
[5] = E. coli NCM3722 delta-hslV, growth: N-lim chemostat, doubling time 6 h
[6] = E. coli NCM3722 delta-lon, growth: N-lim chemostat, doubling time 6 h
[7] = E. coli NCM3722 delta-smpB, growth: N-lim chemostat, doubling time 6 h
[8] = wild type E. coli NCM3722, growth: C-lim chemostat, doubling time 3 h
[9] = wild type E. coli NCM3722, growth: N-lim chemostat, doubling time 6 h
[10] = wild type E. coli NCM3722, growth: N-lim chemostat, doubling time 12 h
[11] = wild type E. coli NCM3722, growth: P-lim chemostat, doubling time 6 h
[12] = wild type E. coli NCM3722, growth: P-lim chemostat, doubling time 12 h

Sequence: MLDIDKSTVDFLVTENMVQEVEKVLSHDVPLVHAIVEEMVKRDIDRIYFVACGSPLNAAQTAKHLADRFSDLQVYAISGWEFCDNTPYRLDDRCAVIGVSDYGKTEEVIKALELGRACGALTAAFTKRADSPITSAAEFSIDYQADCIWEIHLLLCYSVVLEMITRLAPNAEIGKIKNDLKQLPNALGHLVRTWEEKGRQLGELASQWPMIYTVAAGPLRPLGYKEGIVTLMEFTWTHGCVIESGEFRHGPLEIVEPGVPFLFLLGNDESRHTTERAINFVKQRTDNVIVIDYAEISQGLHPWLAPFLMFVPMEWLCYYLSIYKDHNPDERRYYGGLVEY [P0AC00]
- total protein half-life in vivo [1]: 2.37 ± 0.41 h
- total protein half-life in vivo [2]: 2.71 h

Sequence: MSGFYHKHFLKLLDFTPAELNSLLQLAAKLKADKKSGKEEAKLTGKNIALIFEKDSTRTRCSFEVAAYDQGARVTYLGPSGSQIGHKESIKDTARVLGRMYDGIQYRGYGQEIVETLAEYASVPVWNGLTNEFHPTQLLADLLTMQEHLPGKAFNEMTLVYAGDARNNMGNSMLEAAALTGLDLRLVAPQACWPEAALVTECRALAQQNGGNITLTEDVAKGVEGADFIYTDVWVSMGEAKEKWAERIALLREYQVNSKMMQLTGNPEVKFLHCLPAFHDDQTTLGKKMAEEFGLHGGMEVTDEVFESAASIVFDQAENRMHTIKAVMVATLSK
- total protein half-life in vivo [3]: 3.57 ± 0.61 h
- total protein half-life in vivo [4]: 2.14 ± 0.064 h
- total protein half-life in vivo [5]: 2.09 ± 0.27 h
- total protein half-life in vivo [6]: 2.62 ± 0.044 h
- total protein half-life in vivo [7]: 2.52 ± 0.042 h
- total protein half-life in vivo [8]: 2.9 ± 0.032 h
- total protein half-life in vivo [1]: 4.71 ± 0.28 h
- total protein half-life in vivo [2]: 7.42 ± 1.9 h
- total protein half-life in vivo [9]: 2.52 ± 0.23 h
- total protein half-life in vivo [10]: 3.48 ± 0.63 h
- total protein half-life in vivo [11]: 5.11 ± 0.34 h
- total protein half-life in vivo [12]: 8.84 ± 0.35 h

Sequence: MERLLIVNADDFGLSKGQNYGIIEACRNGIVTSTTALVNGQAIDHAVQLSRDEPSLAIGMHFVLTMGKPLTAMPGLTRDGVLGKWIWQLAEEDALPLEEITQELVSQYLRFIELFGRKPTHLDSHHHVHMFPQIFPIVARFAAEQGIALRADRQMAFDLPVNLRTTQGFSSAFYGEEISESLFLQVLDDAGHRGDRSLEVMCHPAFIDNTIRQSAYCFPRLTELDVLTSASLKGAIAQRGYRLGSYRDV
- total protein half-life in vivo [4]: 3.19 ± 0.45 h
- total protein half-life in vivo [5]: 3.38 h
- total protein half-life in vivo [6]: 3.55 ± 0.42 h
- total protein half-life in vivo [7]: 2.945 ± 0.014 h
- total protein half-life in vivo [8]: 2.86 ± 0.21 h
- total protein half-life in vivo [1]: 4.51 ± 0.39 h
- total protein half-life in vivo [2]: 7.9 ± 0.51 h
- total protein half-life in vivo [9]: 3.27 ± 0.43 h
- total protein half-life in vivo [10]: 4.74 ± 0.26 h
- total protein half-life in vivo [11]: 5.12 ± 0.14 h
- total protein half-life in vivo [12]: 10.1 ± 0.26 h

Sequence: MIQYLNVFFYDIYPYICATVFFLGSWLRYDYGQYTWRASSSQMLDKRGMVIWSNLFHIGILGIFFGHLFGMLTPHWMYAWFLPVAAKQLMAMVLGGICGVLTLIGGAGLLWRRLTNQRVRATSTTPDIIIMSILLIQCLLGLSTIPFSAQYPDGSEMMKLVGWAQSIVTFRGGSSEMLNGVAFVFRLHLVLGMTIFLLFPFTRLVHVWSAPFEYFTRRYQIVRSRR [P0AF32]
- total protein half-life in vivo [3]: 6.36 ± 0.3 h
- total protein half-life in vivo [5]: 7.27 ± 0.96 h
- total protein half-life in vivo [6]: 5.71 ± 0.33 h
- total protein half-life in vivo [1]: 6.54 h
- total protein half-life in vivo [2]: 11 h
- total protein half-life in vivo [10]: 10.7 ± 1.9 h
- total protein half-life in vivo [12]: 11.3 ± 1.8 h

Sequence: MSDDMSMGLPSSAGEHGVLRSMQEVAMSSQEASKMLRTYNIAWWGNNYYDVNELGHISVCPDPDVPEARVDLAQLVKTREAQGQRLPALFCFPQILQHRLRSINAAFKRARESYGYNGDYFLVYPIKVNQHRRVIESLIHSGEPLGLEAGSKAELMAVLAHAGMTRSVIVCNGYKDREYIRLALIGEKMGHKVYLVIEKMSEIAIVLDEAERLNVVPRLGVRARLASQGSGKWQSSGGEKSKFGLAATQVLQLVETLREAGRLDSLQLLHFHLGSQMANIRDIATGVRESARFYVELHKLGVNIQCFDVGGGLGVDYEGTRSQSDCSVNYGLNEYANNIIWAIGDACEENGLPHPTVITESGRAVTAHHTVLVSNIIGVERNEYTVPTAPAEDAPRALQSMWETWQEMHEPGTRRSLREWLHDSQMDLHDIHIGYSSGIFSLQERAWAEQLYLSMCHEVQKQLDPQNRAHRPIIDELQERMADKMYVNFSLFQSMPDAWGIDQLFPVLPLEGLDQVPERRAVLLDITCDSDGAIDHYIDGDGIATTMPMPEYDPENPPMLGFFMVGAYQEILGNMHNLFGDTEAVDVFVFPDGSVEVELSDEGDTVADMLQYVQLDPKTLLTQFRDQVKKTDLDAELQQQFLEEFEAGLYGYTYLEDE
- total protein half-life in vivo [3]: 4.96 ± 0.56 h
- total protein half-life in vivo [4]: 4.38 ± 0.22 h
- total protein half-life in vivo [5]: 4.3 ± 0.57 h
- total protein half-life in vivo [6]: 4.28 ± 0.16 h
- total protein half-life in vivo [7]: 3.97 ± 0.11 h
- total protein half-life in vivo [8]: 2.872 ± 0.017 h
- total protein half-life in vivo [1]: 5.43 ± 0.37 h
- total protein half-life in vivo [2]: 9.85 ± 0.33 h
- total protein half-life in vivo [9]: 3.93 ± 0.19 h
- total protein half-life in vivo [10]: 5.91 ± 0.16 h
- total protein half-life in vivo [11]: 5.54 ± 0.16 h
- total protein half-life in vivo [12]: 11.5 ± 0.38 h

Sequence: MKLNDSNLFRQQALINGEWLDANNGEAIDVTNPANGDKLGSVPKMGADETRAAIDAANRALPAWRALTAKERATILRNWFNLMMEHQDDLARLMTLEQGKPLAEAKGEISYAASFIEWFAEEGKRIYGDTIPGHQADKRLIVIKQPIGVTAAITPWNFPAAMITRKAGPALAAGCTMVLKPASQTPFSALALAELAIRAGVPAGVFNVVTGSAGAVGNELTSNPLVRKLSFTGSTEIGRQLMEQCAKDIKKVSLELGGNAPFIVFDDADLDKAVEGALASKFRNAGQTCVCANRLYVQDGVYDRFAEKLQQAVSKLHIGDGLDNGVTIGPLIDEKAVAKVEEHIADALEKGARVVCGGKAHERGGNFFQPTILVDVPANAKVSKEETFGPLAPLFRFKDEADVIAQANDTEFGLAAYFYARDLSRVFRVGEALEYGIVGINTGIISNEVAPFGGIKASGLGREGSKYGIEDYLEIKYMCIGL
- total protein half-life in vivo [3]: 4.773 ± 0.035 h
- total protein half-life in vivo [4]: 4.35 ± 0.32 h
- total protein half-life in vivo [5]: 3.93 ± 0.08 h
- total protein half-life in vivo [6]: 4.251 ± 0.0095 h
- total protein half-life in vivo [7]: 3.87 ± 0.14 h
- total protein half-life in vivo [8]: 2.86 ± 0.26 h
- total protein half-life in vivo [1]: 5.44 ± 0.58 h
- total protein half-life in vivo [2]: 9.938 ± 0.016 h
- total protein half-life in vivo [9]: 3.96 ± 0.29 h
- total protein half-life in vivo [10]: 5.95 ± 0.61 h
- total protein half-life in vivo [11]: 5.72 ± 0.12 h
- total protein half-life in vivo [12]: 11 ± 0.44 h

Sequence: MGRISSGGMMFKAITTVAALVIATSAMAQDDLTISSLAKGETTKAAFNQMVQGHKLPAWVMKGGTYTPAQTVTLGDETYQVMSACKPHDCGSQRIAVMWSEKSNQMTGLFSTIDEKTSQEKLTWLNVNDALSIDGKTVLFAALTGSLENHPDGFNFK [P0AD59]
- total protein half-life in vivo [3]: 5.34 ± 0.85 h
- total protein half-life in vivo [4]: 5.71 ± 1 h
- total protein half-life in vivo [5]: 6.18 ± 0.25 h
- total protein half-life in vivo [6]: 6.285 ± 0.011 h
- total protein half-life in vivo [2]: 9.68 ± 1.2 h
- total protein half-life in vivo [9]: 5.85 ± 0.58 h
- total protein half-life in vivo [10]: 12.6 ± 0.36 h
- total protein half-life in vivo [11]: 5.4 ± 0.3 h
- total protein half-life in vivo [12]: 12.9 ± 1 h

Sequence: MKIKNILLTLCTSLLLTNVAAHAKEVKIGMAIDDLRLERWQKDRDIFVKKAESLGAKVFVQSANGNEETQMSQIENMINRGVDVLVIIPYNGQVLSNVVKEAKQEGIKVLAYDRMINDADIDFYISFDNEKVGELQAKALVDIVPQGNYFLMGGSPVDNNAKLFRAGQMKVLKPYVDSGKIKVVGDQWVDGWLPENALKIMENALTANNNKIDAVVASNDATAGGAIQALSAQGLSGKVAISGQDADLAGIKRIAAGTQTMTVYKPITLLANTAAEIAVELGNGQEPKADTTLNNGLKDVPSRLLTPIDVNKNNIKDTVIKDGFHKESEL
- total protein half-life in vivo [3]: 4.59 ± 0.8 h
- total protein half-life in vivo [4]: 5.33 ± 0.069 h
- total protein half-life in vivo [5]: 5.88 ± 0.42 h
- total protein half-life in vivo [6]: 4.43 h
- total protein half-life in vivo [7]: 6.1 ± 0.13 h
- total protein half-life in vivo [8]: 2.99 ± 0.08 h
- total protein half-life in vivo [1]: 5.41 ± 0.45 h
- total protein half-life in vivo [2]: 8.38 ± 1.2 h
- total protein half-life in vivo [9]: 5.53 ± 0.86 h
- total protein half-life in vivo [10]: 11.2 ± 2.2 h
- total protein half-life in vivo [11]: 5.733 ± 0.025 h
- total protein half-life in vivo [12]: 11.9 ± 0.15 h

Sequence: MRCKGFLFDLDGTLVDSLPAVERAWSNWARRHGLAPEEVLAFIHGKQAITSLRHFMAGKSEADIAAEFTRLEHIEATETEGITALPGAIALLSHLNKAGIPWAIVTSGSMPVARARHKIAGLPAPEVFVTAERVKRGKPEPDAYLLGAQLLGLAPQECVVVEDAPAGVLSGLAAGCHVIAVNAPADTPRLNEVDLVLHSLEQITVTKQPNGDVIIQ
- total protein half-life in vivo [3]: 4.84 ± 0.48 h
- total protein half-life in vivo [4]: 5.45 ± 1.7 h
- total protein half-life in vivo [5]: 4.91 ± 0.61 h
- total protein half-life in vivo [6]: 5.46 ± 0.45 h
- total protein half-life in vivo [7]: 3.992 ± 0.0097 h
- total protein half-life in vivo [8]: 3.06 ± 0.1 h
- total protein half-life in vivo [1]: 6.07 ± 0.31 h
- total protein half-life in vivo [2]: 10.1 ± 0.43 h
- total protein half-life in vivo [9]: 4.54 ± 0.39 h
- total protein half-life in vivo [10]: 6.8 ± 0.18 h
- total protein half-life in vivo [11]: 5.77 ± 0.43 h
- total protein half-life in vivo [12]: 11.4 ± 0.17 h

Sequence: MRISLKKSGMLKLGLSLVAMTVAASVQAKTLVYCSEGSPEGFNPQLFTSGTTYDASSVPLYNRLVEFKIGTTEVIPGLAEKWEVSEDGKTYTFHLRKGVKWHDNKEFKPTRELNADDVVFSFDRQKNAQNPYHKVSGGSYEYFEGMGLPELISEVKKVDDNTVQFVLTRPEAPFLADLAMDFASILSKEYADAMMKAGTPEKLDLNPIGTGPFQLQQYQKDSRIRYKAFDGYWGTKPQIDTLVFSITPDASVRYAKLQKNECQVMPYPNPADIARMKQDKSINLMEMPGLNVGYLSYNVQKKPLDDVKVRQALTYAVNKDAIIKAVYQGAGVSAKNLIPPTMWGYNDDVQDYTYDPEKAKALLKEAGLEKGFSIDLWAMPVQRPYNPNARRMAEMIQADWAKVGVQAKIVTYEWGEYLKRAKDGEHQTVMMGWTGDNGDPDNFFATLFSCAASEQGSNYSKWCYKPFEDLIQPARATDDHNKRVELYKQAQVVMHDQAPALIIAHSTVFEPVRKEVKGYVVDPLGKHHFENVSIE
- total protein half-life in vivo [3]: 6.22 ± 0.29 h
- total protein half-life in vivo [4]: 6.39 ± 1.1 h
- total protein half-life in vivo [5]: 6.489 ± 0.018 h
- total protein half-life in vivo [6]: 6.6 ± 0.13 h
- total protein half-life in vivo [7]: 5.83 ± 0.096 h
- total protein half-life in vivo [8]: 3.33 ± 0.069 h
- total protein half-life in vivo [1]: 6.97 ± 1.4 h
- total protein half-life in vivo [2]: 14.3 ± 1.9 h
- total protein half-life in vivo [9]: 6.058 ± 0.029 h
- total protein half-life in vivo [10]: 12.9 ± 0.92 h
- total protein half-life in vivo [11]: 6.06 ± 0.45 h
- total protein half-life in vivo [12]: 13.1 ± 0.31 h
